Source: article PMC4967961

Key:
[1] = biological target: T1, HuRΔIII (ΔRRMIII) (UniProt Q15717 1-243); experiment: EMSA; EMSA: 20 mM Tris-HCl pH 7.8, 150 mM KCl, 2 mM MgCl2, 0.1% Triton X-100, 0.5 mM DTT, heparin 5 mg/ml, BSA 1 mg/ml, 10% glycerol, on ice 15 min; 6% native PAGE, 0
[2] = biological target: T1, HuRΔIII (ΔRRMIII); experiment: displacement from Ago2 miRNPs, HuR IP and qRT-PCR; 300 nM protein, 5 mM Mg2+, 30 C, 60 min; EMSA: 20 mM Tris-HCl pH 7.8, 150 mM KCl, 2 mM MgCl2, 0.1% Triton X-100, 0.5 mM DTT, heparin 5 mg/ml, BSA 1 mg/ml, 10% glycerol, on ice 15 min; 6% native PAGE, 0

T1 sequence (Q15717 1-243, stated change not applied): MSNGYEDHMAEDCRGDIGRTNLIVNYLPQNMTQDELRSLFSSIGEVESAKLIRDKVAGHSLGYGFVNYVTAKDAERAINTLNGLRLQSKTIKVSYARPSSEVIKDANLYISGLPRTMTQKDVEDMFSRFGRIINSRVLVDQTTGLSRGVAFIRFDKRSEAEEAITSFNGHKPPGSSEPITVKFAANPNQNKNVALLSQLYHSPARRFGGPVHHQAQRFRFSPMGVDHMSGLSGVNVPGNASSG

Binder	binding result [1]	binding signal [2]
AUUAUUUAUUAUUUAUUUAUUAUUUAUUUAUUUA (ssRNA) [TNF-alpha 3'UTR ARE RNA]	binds	–
UGGAGUGUGACAAUGGUGUUUG (ssRNA) [miR-122 from cell-expressed Ago2 miRNPs]	–	~14 fold reduction vs full-length HuR
